In patent US20240317847A1 (Bayer, published 2024):

T1: human IL-11 (human, UniProt P20809 22-199)
T1 sequence: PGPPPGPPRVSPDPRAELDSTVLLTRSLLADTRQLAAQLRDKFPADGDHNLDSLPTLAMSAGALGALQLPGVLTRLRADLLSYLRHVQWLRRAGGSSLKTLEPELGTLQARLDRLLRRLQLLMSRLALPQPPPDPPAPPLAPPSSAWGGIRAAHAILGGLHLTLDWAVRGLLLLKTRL

T2: murine IL-11 (mouse, UniProt P47873 22-199)
T2 sequence: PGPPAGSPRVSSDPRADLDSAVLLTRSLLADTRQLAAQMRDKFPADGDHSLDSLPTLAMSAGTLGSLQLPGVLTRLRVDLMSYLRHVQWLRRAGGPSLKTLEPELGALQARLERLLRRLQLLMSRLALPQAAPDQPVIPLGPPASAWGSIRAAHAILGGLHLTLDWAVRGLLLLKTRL

T3: cynomolgus IL-11 (cynomolgus, UniProt P20808 22-199)
T3 sequence: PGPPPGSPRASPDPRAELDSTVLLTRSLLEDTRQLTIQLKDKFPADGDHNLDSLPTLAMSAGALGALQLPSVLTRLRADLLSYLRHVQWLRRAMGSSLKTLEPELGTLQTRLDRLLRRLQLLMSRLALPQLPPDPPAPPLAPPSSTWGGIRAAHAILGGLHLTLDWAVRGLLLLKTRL

T4: rat IL-11 (rat, UniProt Q99MF5 22-199)
T4 sequence: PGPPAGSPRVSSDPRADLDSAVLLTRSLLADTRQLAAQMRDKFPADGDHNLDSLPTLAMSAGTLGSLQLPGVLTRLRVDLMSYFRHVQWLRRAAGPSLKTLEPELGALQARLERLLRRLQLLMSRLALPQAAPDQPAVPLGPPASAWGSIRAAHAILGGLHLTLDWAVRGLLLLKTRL

B1: TPP-18068 (antibody, mouse IgG1)
heavy: EVQLLESGGGLVQPGGSLRLSCAASGFTFSSYGMHWVRQAPGKGLEWVSVISYDGSYKYYADSVKGRFTISRDNSKNTLYLQMNSLRAEDTAVYYCAAGVPDYWGQGTLVTVSSAKTTPPSVYPLAPGSAAQTNSMVTLGCLVKGYFPEPVTVTWNSGSLSSGVHTFPAVLQSDLYTLSSSVTVPSSTWPSETVTCNVAHPASSTKVDKKIVPRDCGCKPCICTVPEVSSVFIFPPKPKDVLTITLTPKVTCVVVDISKDDPEVQFSWFVDDVEVHTAQTQPREEQFNSTFRSVSELPIMHQDWLNGKEFKCRVNSAAFPAPIEKTISKTKGRPKAPQVYTIPPPKEQMAKDKVSLTCMITDFFPEDITVEWQWNGQPAENYKNTQPIMDTDGSYFVYSKLNVQKSNWEAGNTFTCSVLHEGLHNHHTEKSLSHSPGK
light: QSVLTQPPSASGTPGQRVTISCTGSSSNIGAGYDVHWYQQLPGTAPKLLIYSNNERPSGVPDRFSGSKSGTSASLAISGLRSEDEADYYCAAWDDSLNGPVFGGGTKLTVLGQPKSSPSVTLFPPSSEELETNKATLVCTITDFYPGVVTVDWKVDGTPVTQGMETTQPSKQSNNKYMASSYLTLTARAWERHSSYSCQVTHEGHTVEKSLSRADCS
notes: mIgG1, Lambda
B2: TPP-18087 (antibody, mouse IgG1, V domains shown)
VH: EVQLLESGGGLVQPGGSLRLSCAASGFTFSHYDMNWLRQAPGKGLEWVGVISYDGSNKFYADFVKGRFTISRDNSKNTLYLQMNSLRAEDTAVYYCARTPGSHFDYWGQGTLVTVSS
VL: QSVLTQPPSASGTPGQRVTISCSGSSSNIGNNAVNWYQQLPGTAPKLLIYYDDLLPSGVPDRFSGSKSGTSASLAISGLRSEDEADYYCSAWDDSLNGVVFGGGTKLTVLG
notes: mIgG1, Lambda

Legend:
human IL-11 = target: T1, human IL-11; assay: cell-based or functional assay
murine IL-11 [1] = target: T2, murine IL-11; assay: cell-based or functional assay
cynomolgus IL-11 [2] = target: T3, cynomolgus IL-11; assay: cell-based or functional assay
rat IL-11 [3] = target: T4, rat IL-11; assay: cell-based or functional assay
murine IL-11 [4] = target: T2, murine IL-11; assay: SPR (Biacore), 37 C, antibody captured via anti-Fc, IL-11 as analyte
Method: (§1) To assess the binding kinetics and affinity of anti-IL-11 bispecific antibodies as well as their species cross-reactivity profile, binding assays were conducted using surface plasmon resonance (SPR). […] Antibodies were captured either via anti-human Fc IgGs (“Human antibody capture kit”, Order No. BR100839, Cytiva) or via anti-mouse Fc IgGs (“Mouse antibody capture kit, Order No. BR100383, Cytiva) covalently amine coupled to a Series S CM5 sensor chip (Cytiva) depending on the isotype. The amine coupling was carried out according to the manufacturer's instructions using 1-ethyl-3-(3-dimethylaminopropyl) carbodiimide hydrochloride (EDC), N-hydroxysuccinimide (NHS) and ethanolamine HCl, pH 8.5 (“Amine Coupling Kit” BR-1000-50, Cytiva.). Human, mouse, cynomolgus or rat IL-11 was used as analyte at several dilutions within the concentration range from 0.05-200 nM. For binding assays with only one concentration 200 nM IL-11 was used. The sensor surface was regenerated with glycine pH 1.7 after each antigen injection. Obtained sensorgrams were double referenced (subtraction of reference flow cell signal and buffer injection) and were fitted to a 1:1 Langmuir binding model to derive kinetic data using the Biacore T200 Evaluation software or the Biacore Insight software.
(§2) If no value is reported, there was either no binding or very low binding and multiphasic binding behavior.

cynomolgus IL-11 [5] = target: T3, cynomolgus IL-11; assay: as above
Method: as §1, §2

rat IL-11 [6] = target: T4, rat IL-11; assay: as above
Method: as §1, §2

murine IL-11 [7] = target: T2, murine IL-11; assay: Tri-complex ELISA, mIL-11 + mIL-11Ra-Fc + mgp130-Fc, inhibition of complex formation

| Binder | Efficacy (%), Stat3 reporter gene assay (human IL-11) [%] | IC50, Stat3 reporter gene assay (human IL-11) [nM] | Efficacy (%), Stat3 reporter gene assay (murine IL-11 [1]) [%] | IC50, Stat3 reporter gene assay (murine IL-11 [1]) [nM] | Efficacy (%), Stat3 reporter gene assay (cynomolgus IL-11 [2]) [%] | IC50, Stat3 reporter gene assay (cynomolgus IL-11 [2]) [nM] | Efficacy (%), Stat3 reporter gene assay (rat IL-11 [3]) [%] | IC50, Stat3 reporter gene assay (rat IL-11 [3]) [nM] | Kd (murine IL-11 [4]) [nM] | Kd (cynomolgus IL-11 [5]) [nM] | Kd (rat IL-11 [6]) [nM] | Efficacy (%) (murine IL-11 [7]) | IC50 (murine IL-11 [7]) [nM] |
| --- | --- | --- | --- | --- | --- | --- | --- | --- | --- | --- | --- | --- | --- |
| B1 | 46.1 | 6.5 | 93.6 | 1.2 | 70 | 4.1 | 94 | 1.8 | 0.41 | 5 | 0.58 | 84.9 | 3.9 |
| B2 | 47.8 |  | 59.4 | 16 | 47.7 |  | 31.8 |  | 41 |  |  |  | 33 |
